Values of other authors as cited in PMC4618177.
Read-outs that look alike come from different tables or passages of the source.

Legend:
[1] = target: IAA17 PB1 (Arabidopsis thaliana) (UniProt P93830)
[2] = target: ARF5 PB1 (Arabidopsis thaliana) (UniProt P93024)
[3] = target: IAA17 PB1 (Arabidopsis thaliana) (UniProt P93830); remark: listed apart in the source

Row | Kd [1] [nM] | Kd [2] [nM] | Kd [3] [nM] | Substance
1 | 6600 | – | – | IAA17 PB1 (from UniProt P93830)
2 | – | 860 | 73 | ARF5 PB1 (from UniProt P93024)
